Four molecules from paper PMC3260234 can be followed below.

In data set [1] the target is T1, OxyS (Mycobacterium tuberculosis) (UniProt L7N677).
T1 sequence: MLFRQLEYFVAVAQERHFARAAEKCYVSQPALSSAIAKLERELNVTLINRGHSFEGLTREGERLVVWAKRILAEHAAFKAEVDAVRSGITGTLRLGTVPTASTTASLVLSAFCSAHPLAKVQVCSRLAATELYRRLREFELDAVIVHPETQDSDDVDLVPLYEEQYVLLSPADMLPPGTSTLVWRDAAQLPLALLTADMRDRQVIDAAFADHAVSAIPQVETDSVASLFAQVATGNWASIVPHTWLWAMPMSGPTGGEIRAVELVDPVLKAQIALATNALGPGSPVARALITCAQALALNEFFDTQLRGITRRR
The data set is described as follows: EMSA. As to conditions: 20 mM Tris-HCl pH 7.5, 100 mM NaCl, 2 mM EDTA, room temperature 20 min.

Data set [2] concerns the target T1, OxyS (Mycobacterium tuberculosis). The data set is described as follows: competition. Conditions: 20 mM Tris-HCl pH 7.5, 100 mM NaCl, 2 mM EDTA, room temperature 20 min.
Data set [3] concerns the target T2, OxyS (Mycobacterium tuberculosis, UniProt L7N677 1-314).
T2 sequence: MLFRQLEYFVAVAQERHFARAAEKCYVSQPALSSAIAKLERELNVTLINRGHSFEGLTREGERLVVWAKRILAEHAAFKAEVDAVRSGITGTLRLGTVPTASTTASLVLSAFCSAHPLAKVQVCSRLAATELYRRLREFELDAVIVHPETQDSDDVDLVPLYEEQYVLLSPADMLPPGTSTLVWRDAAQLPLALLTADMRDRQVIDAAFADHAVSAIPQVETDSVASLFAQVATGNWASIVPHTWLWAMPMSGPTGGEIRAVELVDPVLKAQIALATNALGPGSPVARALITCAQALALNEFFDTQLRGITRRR
The data set is described as follows: EMSA; 0-300 nM OxyS; 20 mM Tris-HCl pH 7.5, 100 mM NaCl, 2 mM EDTA, room temperature 20 min; […]. As to conditions: protein: recombinant; tags: 6xHis (pET28a); chain copies: 4; label: 5'-FITC on forward strand; blunt.

For the molecule “CCGATGTCGACTGTGCTGTTGGCGAGGCACCCTGTCTGACGGCCTCGGACCATAACGGCTTCCTGTTGGACGAGGCGGAGGTCATCTACTGGGGTCTATGTCCTGATTGTTCGATATCCGACACTTCGCGATCACATCCGTGATCACAGCCCGATAACACCAACTCCTGGAAGGAATGCT (double strand) [katGp2]”, the binding entry in data set [1] and in data set [2] was “binds” throughout.

For the molecule “TCGACATCGGCGATAACCCCGCAAGACCGGCAGACGATGTGATGGTGGTTGTCGCCGACCCTGGACTCGTAGCGCGCGACGGAGCCCGAGGGTTGGATCTTTCGCACCAAGCCCGCGGCGGTCAGGGCATGCAGCACGTCGTACACGGCTTGCCGGGATACGTCGGGCAGCGCAAAACGC (double strand) [katGp1]”, the binding result in data set [1] and in data set [2] was “no binding” throughout.

B1: OxyS box1 (dsDNA)
DNA 1: TGTCTGACGGCCTCGGACCAT
DNA 2: ATGGTCCGAGGCCGTCAGACA
In the case of B1, the binding result in data set [3] is reported as “binds”.

B2: OxyS box1mut (dsDNA)
DNA 1: TGTCCCACGGCCTCGCCCCAT
DNA 2: ATGGGGCGAGGCCGTGGGACA
For the molecule B2, the binding result in data set [3] is reported as “no binding”.
